Test results reported in patent publication US20160185859A1 (Pfizer, published 2016).

T1: human 5T4 antigen expressed on cells (PC14PE6 cells; MDAMB435/5T4 cells) (human, UniProt Q13641 32-420)
T1 sequence: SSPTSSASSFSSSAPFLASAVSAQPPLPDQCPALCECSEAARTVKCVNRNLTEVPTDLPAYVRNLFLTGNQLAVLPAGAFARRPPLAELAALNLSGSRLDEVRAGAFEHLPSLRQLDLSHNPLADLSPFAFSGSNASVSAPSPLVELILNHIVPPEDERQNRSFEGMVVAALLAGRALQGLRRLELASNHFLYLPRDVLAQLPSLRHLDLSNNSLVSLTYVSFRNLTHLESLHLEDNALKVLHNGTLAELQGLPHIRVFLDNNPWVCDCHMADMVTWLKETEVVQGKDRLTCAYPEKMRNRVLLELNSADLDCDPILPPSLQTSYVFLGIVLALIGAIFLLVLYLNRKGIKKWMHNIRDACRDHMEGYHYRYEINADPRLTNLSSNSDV

T2: human 5T4 antigen (human, UniProt Q13641 32-355, limits assumed)
T2 sequence: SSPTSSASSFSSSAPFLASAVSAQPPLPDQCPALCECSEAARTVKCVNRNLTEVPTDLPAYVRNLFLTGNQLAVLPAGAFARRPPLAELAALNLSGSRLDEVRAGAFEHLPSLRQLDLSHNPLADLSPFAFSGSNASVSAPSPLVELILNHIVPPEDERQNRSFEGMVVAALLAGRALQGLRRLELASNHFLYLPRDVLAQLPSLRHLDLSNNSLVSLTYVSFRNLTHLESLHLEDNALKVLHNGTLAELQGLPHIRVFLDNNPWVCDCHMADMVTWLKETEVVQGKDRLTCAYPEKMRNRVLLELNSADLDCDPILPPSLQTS

T3: black-tailed marmoset 5T4 ectodomain Fc (black-tailed marmoset; human, UniProt Q13641 32-355)
T3 construct: not shown: Fc constant regions from human IgG1
T3 chain: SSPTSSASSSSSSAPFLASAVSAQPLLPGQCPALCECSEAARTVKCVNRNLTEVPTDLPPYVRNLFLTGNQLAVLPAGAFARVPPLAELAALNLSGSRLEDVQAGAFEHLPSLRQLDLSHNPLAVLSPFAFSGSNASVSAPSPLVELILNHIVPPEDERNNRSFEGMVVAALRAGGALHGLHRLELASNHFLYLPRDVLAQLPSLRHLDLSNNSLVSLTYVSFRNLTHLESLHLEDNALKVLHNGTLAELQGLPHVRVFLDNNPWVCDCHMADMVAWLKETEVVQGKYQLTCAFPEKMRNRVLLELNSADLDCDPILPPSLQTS

T4: human 5T4 ectodomain Fc (human, UniProt Q13641 32-355)
T4 construct: also called human 5T4 ectodomain Fc fusion protein; Human 5T4 Ectodomain/Fc Fusion; not shown: Fc constant regions from human IgG1
T4 sequence: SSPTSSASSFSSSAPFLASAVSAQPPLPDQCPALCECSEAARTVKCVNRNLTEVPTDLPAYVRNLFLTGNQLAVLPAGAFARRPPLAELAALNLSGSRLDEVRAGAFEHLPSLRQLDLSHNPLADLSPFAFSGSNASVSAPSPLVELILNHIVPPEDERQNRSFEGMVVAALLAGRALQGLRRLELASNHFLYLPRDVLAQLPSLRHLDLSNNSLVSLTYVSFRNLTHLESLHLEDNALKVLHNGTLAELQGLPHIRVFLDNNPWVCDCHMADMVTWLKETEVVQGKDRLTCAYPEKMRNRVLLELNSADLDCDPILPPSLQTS

T5: cynomologous monkey 5T4 ectodomain Fc (cynomologous monkey; human, UniProt Q4R8Y9 32-355)
T5 construct: not shown: Fc constant regions from human IgG1
T5 chain: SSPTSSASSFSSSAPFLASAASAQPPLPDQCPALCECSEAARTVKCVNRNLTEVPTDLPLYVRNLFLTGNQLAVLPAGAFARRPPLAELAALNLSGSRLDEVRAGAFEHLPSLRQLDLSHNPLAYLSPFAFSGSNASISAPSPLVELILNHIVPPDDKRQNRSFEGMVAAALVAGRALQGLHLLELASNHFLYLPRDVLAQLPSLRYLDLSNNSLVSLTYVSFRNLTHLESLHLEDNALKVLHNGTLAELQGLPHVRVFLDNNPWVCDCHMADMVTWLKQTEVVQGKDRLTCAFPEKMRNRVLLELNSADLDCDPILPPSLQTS


Experiments:
[1] = target: T1, human 5T4 antigen expressed on cells …; assay: cell-based or functional assay
human 5T4 antigen [2] = target: T2, human 5T4 antigen; assay: BIACORE; human 5T4 chip saturated with first antibody humanized H8 (competitor); 600 s after injection of second antibody
[3] = target: T3, black-tailed marmoset 5T4 ectodomain Fc; assay: ELISA; 5T4 ectodomain/Fc fusion protein from transiently transfected COS-1 cells; given as ED50
Protocol: (§1) To assay binding of anti-5T4 antibodies, 5T4 ectodomain/Fc fusion proteins were transiently transfected into COS-1 cells, and ELISA assays were performed. Non-relevant human IgG4 and IgG1 antibodies were used as controls.

human 5T4 ectodomain Fc = target: T4, human 5T4 ectodomain Fc; assay: as above
Protocol: as §1

[4] = target: chimpanzee 5T4 ectodomain Fc (chimpanzee; human, UniProt P01857 99-330 = IgG part); assay: as above
Protocol: as §1

[5] = target: T5, cynomologous monkey 5T4 ectodomain Fc; assay: as above
Protocol: as §1

human 5T4 antigen [6] = target: T2, human 5T4 antigen; assay: BIACORE; human 5T4 chip saturated with first antibody humanized H8 (competitor); 37.5 s after injection of second antibody
human 5T4 antigen [7] = target: T2, human 5T4 antigen; assay: BIACORE; human 5T4 chip saturated with first antibody humanized H8 (competitor); 150 s after injection of second antibody
human 5T4 antigen [8] = target: T2, human 5T4 antigen; assay: BIACORE; human 5T4 chip saturated with first antibody humanized H8 (competitor); 300 s after injection of second antibody
human 5T4 antigen [9] = target: T2, human 5T4 antigen; assay: BIACORE; human 5T4 chip saturated with first antibody humanized H8 (competitor); 19 s after injection of second antibody
human 5T4 antigen [10] = target: T2, human 5T4 antigen; assay: BIACORE; human 5T4 chip saturated with first antibody humanized H8 (competitor); 75 s after injection of second antibody
human 5T4 antigen [11] = target: T2, human 5T4 antigen; assay: BIACORE (SPR); human 5T4 antigen immobilized on CM5 chip
Protocol: To assess the binding specificity and affinity of the A1, A2, and A3 antibodies, BIACORE® analysis was performed using human 5T4 antigen immobilized on a CM5 chip. BIACORE® technology utilizes changes in the refractive index at the surface layer upon binding of the antibody to the 5T4 antigen immobilized on the layer. Binding is detected by surface plasmon resonance (SPR) of laser light refracting from the surface. Analysis of the signal kinetics on rate and off rate allows discrimination between non-specific and specific interactions. The H8 anti-5T4 antibody was used as a control. H8 is a hybridoma-generated monoclonal mouse IgG1 antibody described in PCT International Publication No. WO 98/55607 and in Forsberg et al. (1997) J. Biol. Chem. 272(19):[…].
To assess the binding specificity and affinity of the chimeric and humanized H8, A1, A2, and A3 antibodies, BIACORE® analysis was performed using human 5T4 antigen immobilized on a CM5 chip. See Example 2.

human 5T4 antigen [12] = target: T2, human 5T4 antigen; assay: ELISA; inhibition of biotinylated chimeric A1 antibody binding to human 5T4

| Binder | Fold CalichDMH, MTS assay, MDAMB435/5T4 cells [1] [fold] | percentage of second antibody bound following saturation with first antibody (human 5T4 antigen [2]) [%] | EC50 [3] [nM] | EC50 (human 5T4 ectodomain Fc) [nM] | EC50 [4] [nM] | EC50 [5] [nM] | percentage of second antibody bound following saturation with first antibody (human 5T4 antigen [6]) [%] | percentage of second antibody bound following saturation with first antibody (human 5T4 antigen [7]) [%] | percentage of second antibody bound following saturation with first antibody (human 5T4 antigen [8]) [%] | percentage of second antibody bound following saturation with first antibody (human 5T4 antigen [9]) [%] | percentage of second antibody bound following saturation with first antibody (human 5T4 antigen [10]) [%] | Ka (human 5T4 antigen [11]) [M⁻¹] | Kd (human 5T4 antigen [11]) [nM] | koff (human 5T4 antigen [11]) [s⁻¹] | kon (human 5T4 antigen [11]) [M⁻¹ s⁻¹] | IC50 (human 5T4 antigen [12]) [nM] |
| --- | --- | --- | --- | --- | --- | --- | --- | --- | --- | --- | --- | --- | --- | --- | --- | --- |
| A2-AcBut-CalichDMH, A2 antibody conjugated to calicheamicin using 4-(4'-acetylphenoxy)butanoic acid (AcBut) (other, calicheamicin (CalichDMH) conjugated to the antibody through the AcBut linker; residues carrying it not stated) VH: QVQLQQSRPELVKPGASVKMSCKASGYTFTDYVISWVKQRTGQGLEWIGEIYPGSNSIYYNEKFKGRATLTADKSSSTAYMQLSSLTSEDSAVYFCAMGGNYGFDYWGQGTTLTVSS VL: QIVLTQSPAIMSASLGERVTLTCTASSSVNSNYLHWYQQKPGSSPKLWIYSTSNLASGVPARFSGSGSGTSYSLTISSMEAEDAATYYCHQYHRSPLTFGAGTKLELK | 0.13 | – | – | – | – | – | – | – | – | – | – | – | – | – | – | – |
| chimeric A2 antibody (antibody, human IgG4, V domains shown, also called ChiA2; ChiA2 γ4) VH: QVQLQQSRPELVKPGASVKMSCKASGYTFTDYVISWVKQRTGQGLEWIGEIYPGSNSIYYNEKFKGRATLTADKSSSTAYMQLSSLTSEDSAVYFCAMGGNYGFDYWGQGTTLTVSS VL: QIVLTQSPAIMSASLGERVTLTCTASSSVNSNYLHWYQQKPGSSPKLWIYSTSNLASGVPARFSGSGSGTSYSLTISSMEAEDAATYYCHQYHRSPLTFGAGTKLELK | – | 96.7 | 0.22 | 0.21 | 0.22 | 0.18 | 84.7 | 90.5 | 93.7 | 86.9 | 86.9 | 5.7e+08 | 1.8 | 0.00025 | 140000 | – |
| chimeric A1 antibody (antibody, V domains shown, Biotinylated when used as the labelled competitor in Table 13; the site is not stated., also called ChiA1; ChiA1 γ4) VH: QIQLVQSGPELKKPGETVKISCKASGYTFTNFGMNWVKQGPGEGLKWMGWINTNTGEPRYAEEFKGRCAFSLETTASTAYLQINNLKNEDTATYFCARDWDGAYFFDYWGQGTTLTVSS VL: SIVMTQTPKFLLVSAGDRVTITCKASQSVSNDVAWYQQKPGQSPKLLINFATNRYTGVPNRFTGSGYGTDFTFTISTVQAEDLALYFCQQDYSSPWTFGGGTKLEIK | – | 98.7 | 0.24 | 0.28 | 0.27 | 0.18 | 92.4 | 95.8 | 97.3 | 92.7 | 93.8 | 2.3e+09 | 0.44 | 6.7e-05 | 150000 | 16 to 20 |
